Assay results published in article PMC6327505, “Adaption to glucose limitation is modulated by the pleotropic regulator CcpA, independent of selection pressure strength”.

Target: T1, CcpA-Ile19 (evolved, 445C1) (Lactococcus lactis MG1363 (evolved …, UniProt A2RJC5 1-332, M19I))
T1 sequence: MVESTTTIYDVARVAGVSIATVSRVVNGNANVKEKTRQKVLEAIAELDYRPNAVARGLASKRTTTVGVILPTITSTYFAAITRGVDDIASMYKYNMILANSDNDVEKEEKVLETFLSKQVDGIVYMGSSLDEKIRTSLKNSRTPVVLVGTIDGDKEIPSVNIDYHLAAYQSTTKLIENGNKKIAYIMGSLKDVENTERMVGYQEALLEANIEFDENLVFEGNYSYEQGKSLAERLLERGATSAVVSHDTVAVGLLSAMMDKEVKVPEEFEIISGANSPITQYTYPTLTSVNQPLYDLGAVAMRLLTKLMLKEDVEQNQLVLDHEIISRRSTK
Assay: EMSA; 100-800 nM CcpA, 4 nM DNA; affinity increased vs Met19, least pronounced; EMSA: 20 mM Tris-HCl pH 8, 100 mM KCl, 10 mM MgCl2, 1 mM EDTA, 1 mM DTT, 5% glycerol, 40 ug/ml BSA, 4 nM Cy3-DNA, 30 C 20 min; 7.5% native PAGE in TBE
Conditions: protein: recombinant; tags: N-terminal 6xHis (pQE30); chain copies: 2; label: 5'-Cy3 on (+) strand; blunt

B1: mtlD cre (dsDNA)
DNA 1: ACCACAATGTAAAAGCTTACAATTGCT
DNA 2: AGCAATTGTAAGCTTTTACATTGTGGT
B1: binds.
